Assay in all cases: cell-based or functional assay
Test [1] addresses CD51/alphaV integrin (human) (UniProt P06756).
The target in test [2] is CD36 (human) (UniProt P16671).
Test [3] has as its target Thrombospondin (TSP)-1 (human) (UniProt P07996).

Data on three substances can be found in patent publication US20100255003A1.

Sequence of UniProt P07996 (P07996 19-1170 A84T limits assumed): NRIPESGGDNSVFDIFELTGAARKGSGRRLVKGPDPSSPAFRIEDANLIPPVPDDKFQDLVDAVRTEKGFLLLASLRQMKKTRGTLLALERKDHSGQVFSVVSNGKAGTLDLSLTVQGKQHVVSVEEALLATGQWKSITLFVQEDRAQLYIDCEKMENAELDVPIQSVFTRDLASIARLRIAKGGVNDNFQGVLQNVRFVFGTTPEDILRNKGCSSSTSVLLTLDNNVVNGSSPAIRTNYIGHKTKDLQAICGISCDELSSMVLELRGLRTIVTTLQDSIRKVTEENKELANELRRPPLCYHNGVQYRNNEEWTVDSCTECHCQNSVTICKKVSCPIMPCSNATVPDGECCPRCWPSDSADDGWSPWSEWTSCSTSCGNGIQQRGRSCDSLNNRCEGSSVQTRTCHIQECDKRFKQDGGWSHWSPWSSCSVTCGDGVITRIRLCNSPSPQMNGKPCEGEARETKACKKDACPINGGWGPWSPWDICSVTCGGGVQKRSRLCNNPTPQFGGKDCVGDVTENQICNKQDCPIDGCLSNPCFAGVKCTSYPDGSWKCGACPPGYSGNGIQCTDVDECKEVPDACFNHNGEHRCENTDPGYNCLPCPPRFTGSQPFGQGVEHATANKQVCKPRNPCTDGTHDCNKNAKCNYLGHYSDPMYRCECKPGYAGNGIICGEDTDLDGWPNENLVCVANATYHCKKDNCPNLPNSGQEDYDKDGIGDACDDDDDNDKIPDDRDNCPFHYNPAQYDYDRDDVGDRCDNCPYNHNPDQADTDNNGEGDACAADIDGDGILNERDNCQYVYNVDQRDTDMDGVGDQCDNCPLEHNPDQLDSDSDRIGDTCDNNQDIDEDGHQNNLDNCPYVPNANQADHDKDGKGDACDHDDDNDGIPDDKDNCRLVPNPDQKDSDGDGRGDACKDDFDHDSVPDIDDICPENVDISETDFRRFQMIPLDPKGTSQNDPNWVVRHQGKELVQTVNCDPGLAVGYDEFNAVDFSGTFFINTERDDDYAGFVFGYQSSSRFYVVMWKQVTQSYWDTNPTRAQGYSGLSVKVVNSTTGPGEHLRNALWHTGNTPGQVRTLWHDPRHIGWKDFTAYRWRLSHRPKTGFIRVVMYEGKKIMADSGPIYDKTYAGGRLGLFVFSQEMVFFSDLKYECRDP
Sequence of UniProt P06756 (P06756 31-1048): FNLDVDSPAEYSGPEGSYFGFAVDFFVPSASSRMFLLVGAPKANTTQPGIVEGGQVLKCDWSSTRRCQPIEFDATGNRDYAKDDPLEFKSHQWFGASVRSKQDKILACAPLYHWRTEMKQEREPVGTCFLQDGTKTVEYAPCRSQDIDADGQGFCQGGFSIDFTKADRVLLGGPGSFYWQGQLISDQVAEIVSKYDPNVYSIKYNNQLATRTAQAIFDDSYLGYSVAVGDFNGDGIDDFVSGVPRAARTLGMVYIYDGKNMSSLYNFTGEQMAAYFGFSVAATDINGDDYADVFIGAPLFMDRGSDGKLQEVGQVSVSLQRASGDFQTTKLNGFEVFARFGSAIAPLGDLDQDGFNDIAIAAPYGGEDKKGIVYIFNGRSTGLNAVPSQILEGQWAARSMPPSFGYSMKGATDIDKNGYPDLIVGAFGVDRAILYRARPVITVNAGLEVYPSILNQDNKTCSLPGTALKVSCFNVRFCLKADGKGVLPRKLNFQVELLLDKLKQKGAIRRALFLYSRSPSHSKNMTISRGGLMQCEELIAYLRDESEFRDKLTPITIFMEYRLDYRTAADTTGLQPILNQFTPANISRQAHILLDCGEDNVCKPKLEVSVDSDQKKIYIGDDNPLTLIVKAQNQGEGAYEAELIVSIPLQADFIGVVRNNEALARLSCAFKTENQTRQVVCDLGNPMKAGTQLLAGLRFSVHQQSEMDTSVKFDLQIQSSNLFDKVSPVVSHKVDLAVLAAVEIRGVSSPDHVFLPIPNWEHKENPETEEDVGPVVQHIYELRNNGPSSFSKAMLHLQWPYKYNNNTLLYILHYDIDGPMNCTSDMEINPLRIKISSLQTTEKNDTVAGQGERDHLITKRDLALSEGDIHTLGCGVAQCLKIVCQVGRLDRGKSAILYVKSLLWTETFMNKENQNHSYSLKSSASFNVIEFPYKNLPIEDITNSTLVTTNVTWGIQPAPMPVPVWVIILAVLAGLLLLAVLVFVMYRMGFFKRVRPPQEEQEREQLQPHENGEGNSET
Sequence of UniProt P16671 (P16671 2-472): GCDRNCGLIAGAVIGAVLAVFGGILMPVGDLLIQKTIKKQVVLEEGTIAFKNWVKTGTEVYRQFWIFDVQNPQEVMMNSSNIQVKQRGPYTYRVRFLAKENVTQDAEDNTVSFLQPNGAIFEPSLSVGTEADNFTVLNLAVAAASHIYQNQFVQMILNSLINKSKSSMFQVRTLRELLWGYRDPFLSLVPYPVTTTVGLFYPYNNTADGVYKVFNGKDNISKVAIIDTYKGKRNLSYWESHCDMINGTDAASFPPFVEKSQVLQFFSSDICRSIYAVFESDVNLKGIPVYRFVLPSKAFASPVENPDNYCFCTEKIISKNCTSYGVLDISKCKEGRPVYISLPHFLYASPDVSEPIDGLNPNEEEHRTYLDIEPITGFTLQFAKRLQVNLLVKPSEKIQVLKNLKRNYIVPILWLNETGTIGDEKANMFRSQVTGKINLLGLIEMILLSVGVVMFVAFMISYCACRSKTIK

The substance “mouse anti-CD51/integrin alphaV monoclonal antibody (clone AV1; Chemicon International, Cat. No. MAB2021Z)” showed an inhibition of apoptotic monocyte endocytosis by immature dendritic cells (percentage of thrombospondin-1-dependent endocytosis) in test [1] of 24 percent.

“mouse IgM anti-human CD36 monoclonal antibody (clone SMO; Serotec, Cat. No. MCA722XZ)” showed an inhibition of apoptotic monocyte endocytosis by immature dendritic cells (percentage of thrombospondin-1-dependent endocytosis) in test [2] of 64 percent.

For “azide-free polyclonal goat anti-human thrombospondin-1 N-terminus antibody N-20 (Santa Cruz Biotechnology, Cat No. sc-12312)”, the inhibition of apoptotic monocyte endocytosis by immature dendritic cells (percentage of thrombospondin-1-dependent endocytosis) in test [3] was determined as 90 percent.
